Laboratory results reported in patent US20240389562.

Key:
Assay in all cases: cell_activity
[1] = system: XTN TALEN 1 right monomer; conditions: Cel-1 assay, value for the pair
[2] = system: XTN TALEN 3 right monomer; conditions: Cel-1 assay, value for the pair
XTN TALEN 1 left monomer = conditions: Cel-1 assay, value for the pair
XTN TALEN 3 left monomer = conditions: Cel-1 assay, value for the pair
XTN TALEN 2 left monomer = conditions: Cel-1 assay, value for the pair; most active
[3] = system: XTN TALEN 2 right monomer; conditions: Cel-1 assay, value for the pair; most active

AGTGCAGGGAGCCACA (double strand) [TALEN 1 right half-site]
activity [1]: 5%

GTCATTGAGCAAATGCA (double strand) [TALEN 3 right half-site]
activity [2]: 3%

TATGCGGACCTTTATCTA (double strand) [TALEN 1 left half-site]
activity (XTN TALEN 1 left monomer): 5%

TCTGCCAACCTCACAT (double strand) [TALEN 3 left half-site]
activity (XTN TALEN 3 left monomer): 3%

TGCAGTATGCGGACCTT (double strand) [TALEN 2 left half-site]
activity (XTN TALEN 2 left monomer): 9%

TTCCTAAGTGCAGGGA (double strand) [TALEN 2 right half-site]
activity [3]: 9%
